Results from the supplement of paper PMC9233669.
This sample holds only a part of the variants without activity.

Tests used:
biotinyl-Met-oxazolone = experiment: self-aminoacylation, catalytic enhancement (BMO) (fold over background); higher = more active; k-Seq, kA / k0A0; sequences stand for … in GGGAAUGGAUCCACAUCUACGAAUUC…UUCACUGCAGACUUGACGAAGCUG
In short: (§1)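 Each biotinyl-aminoacyl-oxazolone, at 2–1250 μM, was incubated with mutagenized RNA pools (0.43 μM) carrying a 21-nt variable region. The 50 μL reactions contained HEPES/NaCl/KCl/MgCl2/CaCl2 buffer with 5% acetonitrile at pH 6.9–7.0 and ran for 90 minutes at room temperature. After streptavidin capture, RNA was measured by qPCR in triplicate and by Illumina sequencing, and catalytic enhancement was calculated as median kA over the uncatalyzed rate from a pseudo-first-order fit of per-sequence fraction reacted.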

biotinyl-Trp-oxazolone = experiment: self-aminoacylation, catalytic enhancement (BWO) (fold over background); higher = more active; k-Seq, kA / k0A0; sequences stand for … in GGGAAUGGAUCCACAUCUACGAAUUC…UUCACUGCAGACUUGACGAAGCUG
In short: as §1

biotinyl-Ile-oxazolone = experiment: self-aminoacylation, catalytic enhancement (BIO) (fold over background); higher = more active; k-Seq, kA / k0A0; sequences stand for … in GGGAAUGGAUCCACAUCUACGAAUUC…UUCACUGCAGACUUGACGAAGCUG
In short: as §1

biotinyl-Val-oxazolone = experiment: self-aminoacylation, catalytic enhancement (BVO) (fold over background); higher = more active; k-Seq, kA / k0A0; sequences stand for … in GGGAAUGGAUCCACAUCUACGAAUUC…UUCACUGCAGACUUGACGAAGCUG
In short: as §1

biotinyl-Leu-oxazolone = experiment: self-aminoacylation, catalytic enhancement (BLO) (fold over background); higher = more active; k-Seq, kA / k0A0; sequences stand for … in GGGAAUGGAUCCACAUCUACGAAUUC…UUCACUGCAGACUUGACGAAGCUG
In short: as §1

biotinyl-Phe-oxazolone = experiment: self-aminoacylation, catalytic enhancement (BFO) (fold over background); higher = more active; k-Seq, kA / k0A0; sequences stand for … in GGGAAUGGAUCCACAUCUACGAAUUC…UUCACUGCAGACUUGACGAAGCUG
In short: as §1

| Sequence | self-aminoacylation (biotinyl-Met-oxazolone) | self-aminoacylation (biotinyl-Trp-oxazolone) | self-aminoacylation (biotinyl-Ile-oxazolone) | self-aminoacylation (biotinyl-Val-oxazolone) | self-aminoacylation (biotinyl-Leu-oxazolone) | self-aminoacylation (biotinyl-Phe-oxazolone) |
| --- | --- | --- | --- | --- | --- | --- |
| AGUCACCGAGGUCAUCGGGUG [Fam2.2 aminoacylation ribozyme variant] | 5.09 | 5.81 | 4.06 | 4.46 | 4.81 | 32.8 |
| AUUCACCUAGGCCAUGGGGUG [Fam2.2 aminoacylation ribozyme variant] | 8.03 | 6.1 | 4.58 | 3.87 | 10.2 | 42.5 |
| AAUACGCUGGUCAUCGAGUGA [Fam2.1 aminoacylation ribozyme variant] | 4.31 | 5.67 | 3.67 | 3.88 | 5 | 15.1 |
| AACUUUGCUAAUAGUCGCAGG [Fam3.1 aminoacylation ribozyme variant] | 3.29 | 3.48 | 2.29 | 2.29 | 2.75 | 14.1 |
| AAGUUGGCUAGUAGUCGCAAG [Fam3.1 aminoacylation ribozyme variant] | 1.21 | 1.51 | 1.65 | 1.65 | 1.65 | 2.98 |
| AUUACCCUGGUCCUUGAGUGA [Fam2.1 aminoacylation ribozyme variant] | 8.05 | 9.98 | 3.86 | 3.86 | 8.35 | 56.2 |
| CCACACUUCAGGCAUUCGGUC [Fam1B.1 aminoacylation ribozyme variant] | 1.88 | 2.27 | 2.2 | 2.48 | 2.2 | 1.09 |
| AUUCACCUAGGUUAUCGGGUC [Fam2.2 aminoacylation ribozyme variant] | 1.13 | 0.944 | 1.2 | 1.08 | 1.11 | 1.59 |
| CUACUUGAAACAAUCGGUCGG [Fam1A.1 aminoacylation ribozyme variant] | 0.994 | 0.589 | 0.997 | 0.949 | 1.13 | 0.733 |
| AAGUUUGCUAAAAGUCGCAAG [Fam3.1 aminoacylation ribozyme variant] | 1.33 | 4.97 | 1.24 | 1.08 | 1.01 | 17.1 |
| AUUCACCUAGGUCACUGGGUG [Fam2.2 aminoacylation ribozyme variant] | 2.82 | 2.52 | 1.8 | 1.72 | 3.93 | 19.7 |
| GUUACCGUGGUCAUCGAGUGA [Fam2.1 aminoacylation ribozyme variant] | 9.15 | 10.1 | 5.33 | 5.58 | 10.6 | 55.3 |
| AGUCACCUAGGUCAUCGGUUG [Fam2.2 aminoacylation ribozyme variant] | 1.99 | 1.82 | 1.83 | 1.71 | 2.12 | 10.1 |
| CUACUUCAAACACUCGCUCUG [Fam1A.1 aminoacylation ribozyme variant] | 1.06 | 0.468 | 0.924 | 0.818 | 0.708 | 1.16 |
| GAGUUUGGUAAUAGUCGCAAG [Fam3.1 aminoacylation ribozyme variant] | 1.75 | 2.36 | 1.94 | 1.55 | 1.73 | 3.41 |
| AUUCACCUAGGACAUCGGGUG [Fam2.2 aminoacylation ribozyme variant] | 3.19 | 3.1 | 2.55 | 2.6 | 3.89 | 18.8 |
| AUUACCCUAAUCAUCGAGUGA [Fam2.1 aminoacylation ribozyme variant] | 6.83 | 7.8 | 3.28 | 3.39 | 6.87 | 19.8 |
| AUGAUCCUGGUCAUCGAGUGA [Fam2.1 aminoacylation ribozyme variant] | 9.84 | 9.32 | 4.83 | 4.44 | 9.67 | 14 |
| AUUACCCUGAUCAUCGACUGA [Fam2.1 aminoacylation ribozyme variant] | 0.78 | 0.666 | 0.928 | 0.876 | 0.777 | 1.16 |
| CCCCACUUCAAGGAAUCGGUC [Fam1B.1 aminoacylation ribozyme variant] | 2.33 | 13 | 2.4 | 2.15 | 2.62 | 11.3 |
| CCACAGUUCAAGCAUUCGGUC [Fam1B.1 aminoacylation ribozyme variant] | 1.84 | 1.86 | 1.88 | 2.33 | 2.04 | 1.61 |
| UUUCACCUAGGUCGUCGGGUG [Fam2.2 aminoacylation ribozyme variant] | 2.75 | 3 | 1.9 | 2.27 | 2.44 | 11.2 |
| AAGUUUGCCAAAAGUCGCAAG [Fam3.1 aminoacylation ribozyme variant] | 1.39 | 1.54 | 1.41 | 1.36 | 1.57 | 1.01 |
| AUUACACUGGUCAACGAGUGA [Fam2.1 aminoacylation ribozyme variant] | 5.3 | 7.54 | 2.78 | 2.79 | 5.07 | 22.6 |
| AUUAGCCUGGUCUUCGAGUGA [Fam2.1 aminoacylation ribozyme variant] | 5.53 | 6.87 | 3.5 | 3.28 | 5.63 | 35.9 |
| AUUACCCAGGACAUCGAGUGA [Fam2.1 aminoacylation ribozyme variant] | 8.33 | 8.66 | 3.56 | 3.9 | 7.26 | 56.4 |

| Sequence | self-aminoacylation (biotinyl-Met-oxazolone) | self-aminoacylation (biotinyl-Trp-oxazolone) | self-aminoacylation (biotinyl-Ile-oxazolone) | self-aminoacylation (biotinyl-Val-oxazolone) | self-aminoacylation (biotinyl-Leu-oxazolone) | self-aminoacylation (biotinyl-Phe-oxazolone) |
| --- | --- | --- | --- | --- | --- | --- |
| ACGUUUGCUAAUAGUCGCACG [Fam3.1 aminoacylation ribozyme variant] | 2.53 | 2.13 | 2.43 | 2.05 | 2.26 | 3.42 |
| AUUCACCUAAAUCAUCGGGUG [Fam2.2 aminoacylation ribozyme variant] | 5.3 | 5.55 | 3.11 | 2.56 | 6.91 | 34.6 |
| GCUCACCUAGGUCAUCGGGUG [Fam2.2 aminoacylation ribozyme variant] | 6.13 | 9.1 | 5.39 | 5.77 | 6.79 | 35.1 |
| AAUCACCUAGGUUAUCGGGUG [Fam2.2 aminoacylation ribozyme variant] | 4.32 | 7.07 | 3.83 | 4.23 | 4.57 | 38.4 |
| CUUCACCUAGGUCAUCGAGUG [Fam2.2 aminoacylation ribozyme variant] | 5.78 | 4.55 | 4.29 | 4.22 | 7.37 | 9.18 |
| AUUCUCCUAAGUCAUCGGGUG [Fam2.2 aminoacylation ribozyme variant] | 16 | 16 | 10.3 | 9.67 | 21.3 | 154 |
| AUGUUUGCUAAUAGUCGCAAA [Fam3.1 aminoacylation ribozyme variant] | 1.75 | 2.71 | 2.2 | 1.59 | 1.54 | 4.87 |
| AUUCACCUAGGUCAUUGGGUG [Fam2.2 aminoacylation ribozyme variant] | 3.26 | 3.18 | 2.31 | 2.29 | 4.03 | 20.1 |
| AUUCACCUAGGUUAUCUGGUG [Fam2.2 aminoacylation ribozyme variant] | 5.29 | 4.49 | 3.02 | 2.95 | 5.96 | 35.2 |
| AUACACCUAGUUCAUCGGGUG [Fam2.2 aminoacylation ribozyme variant] | 1.73 | 3.48 | 2.33 | 2.19 | 1.78 | 4.89 |
| AUCACCAUGGUCAUCGAGUGA [Fam2.1 aminoacylation ribozyme variant] | 10.3 | 13.2 | 5.49 | 5.56 | 11.7 | 58.9 |
| AUUCACCUAUCUCAUCGGGUG [Fam2.2 aminoacylation ribozyme variant] | 3.1 | 3.46 | 2.18 | 2.09 | 4.13 | 19.4 |
| CUACUUCAAACGAUCGGUCAG [Fam1A.1 aminoacylation ribozyme variant] | 0.36 | 0.625 | 0.621 | 0.535 | 0.566 | 0.808 |
| AAGUUCGCUAAUAGUUGCAAG [Fam3.1 aminoacylation ribozyme variant] | 1.47 | 1.12 | 1.52 | 1.22 | 1.33 | 1.71 |
| AUUCACCUGGGUCAUUGGGUG [Fam2.2 aminoacylation ribozyme variant] | 4.52 | 4.15 | 3.51 | 4.03 | 6.07 | 31.1 |
| CGACGCUUCAAGCAAUCGGUC [Fam1B.1 aminoacylation ribozyme variant] | 1.07 | 16.7 | 1.2 | 1.35 | 1.58 | 22.7 |
| CUACUUCAAACAACUGGUCUG [Fam1A.1 aminoacylation ribozyme variant] | 0.603 | 0.661 | 0.734 | 0.654 | 0.678 | 0.753 |
| AAAUUUGCUAAUAGUCGCAAU [Fam3.1 aminoacylation ribozyme variant] | 2.35 | 3.09 | 2.71 | 2.13 | 2.33 | 2.52 |
| AAGAUUGCUAAUAGUCGCAGG [Fam3.1 aminoacylation ribozyme variant] | 1.49 | 1.83 | 1.34 | 1.64 | 2.05 | 7.75 |
| ACUCACCUAGGUCAUCGGGUG [Fam2.2 aminoacylation ribozyme variant] | 15.9 | 13.9 | 9.45 | 9.32 | 19.8 | 105 |
| AUAACCCUGGUCAUCGGGUGA [Fam2.1 aminoacylation ribozyme variant] | 31.3 | 35.3 | 12.1 | 13.4 | 35.6 | 183 |
| AUUACCCUGGUGACCGAGUGA [Fam2.1 aminoacylation ribozyme variant] | 9.44 | 12.5 | 4.29 | 4.93 | 11.1 | 66.1 |
| AUUACCCUGGUCAUCAAUUGA [Fam2.1 aminoacylation ribozyme variant] | 0.948 | 0.826 | 0.823 | 0.92 | 0.963 | 0.681 |
| ACACACUCCAAGCAAUCGGUC [Fam1B.1 aminoacylation ribozyme variant] | 0.768 | 0.999 | 0.959 | 0.924 | 0.864 | 1.92 |
| CUACUUCAAAGACUCGGUCUG [Fam1A.1 aminoacylation ribozyme variant] | 1.16 | 1.35 | 1.12 | 1.2 | 1.01 | 3.52 |
